From patent publication US20210246218A1 (LYVGEN BIOPHARMA SUZHOU, published 2021)

How the values were obtained:
Assay in all cases: flow cytometry on CHO cells over-expressing the target
[1] = molecular target: T1, human CD200R1 on CHO cells (human, UniProt Q8TD46 25-348)
T1 construct: whole, on cells
T1 sequence (looked up): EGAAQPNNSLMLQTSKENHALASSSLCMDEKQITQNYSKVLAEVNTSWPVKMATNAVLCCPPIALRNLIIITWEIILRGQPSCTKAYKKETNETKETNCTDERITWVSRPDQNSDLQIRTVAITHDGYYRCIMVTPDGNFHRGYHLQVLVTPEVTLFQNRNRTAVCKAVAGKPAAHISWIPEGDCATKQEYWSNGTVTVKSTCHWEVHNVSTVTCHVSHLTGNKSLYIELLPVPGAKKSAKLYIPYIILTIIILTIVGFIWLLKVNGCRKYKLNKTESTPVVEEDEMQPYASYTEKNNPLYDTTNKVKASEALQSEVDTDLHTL
Procedure: (§1) The cells were resuspended in ice cold assay buffer at 2*10\hat{ }6/mL and transferred to 96-well V-bottom plate with 100 μL/well. […] The plate was incubated in the dark for 2 hours at 4° C. The cells were washed 3 times by centrifugation at 1000 g for 3 min and resuspended in 100 μL ice cold assay buffer containing goat F(ab′)₂ anti-human IgG-Fc (PE) or PE goat anti-mouse IgG antibody. The plate was incubated in the dark for another 1 hour at 4° C. The cells were washed 2 times by centrifugation at 1000 g for 3 min and resuspended in ice cold assay buffer containing 2% PFA and analyzed on the flow cytometer immediately.

[2] = molecular target: T2, human BTLA on CHO cells (human, UniProt Q7Z6A9 31-289)
T2 construct: whole, on cells
Procedure: as §1

[3] = molecular target: T3, human CD47 on CHO cells (human, UniProt Q08722 19-323)
T3 construct: whole, on cells
Procedure: as §1

[4] = molecular target: T4, human CD19 on CHO cells (human, UniProt P15391 20-556)
T4 construct: whole, on cells
T4 sequence (looked up): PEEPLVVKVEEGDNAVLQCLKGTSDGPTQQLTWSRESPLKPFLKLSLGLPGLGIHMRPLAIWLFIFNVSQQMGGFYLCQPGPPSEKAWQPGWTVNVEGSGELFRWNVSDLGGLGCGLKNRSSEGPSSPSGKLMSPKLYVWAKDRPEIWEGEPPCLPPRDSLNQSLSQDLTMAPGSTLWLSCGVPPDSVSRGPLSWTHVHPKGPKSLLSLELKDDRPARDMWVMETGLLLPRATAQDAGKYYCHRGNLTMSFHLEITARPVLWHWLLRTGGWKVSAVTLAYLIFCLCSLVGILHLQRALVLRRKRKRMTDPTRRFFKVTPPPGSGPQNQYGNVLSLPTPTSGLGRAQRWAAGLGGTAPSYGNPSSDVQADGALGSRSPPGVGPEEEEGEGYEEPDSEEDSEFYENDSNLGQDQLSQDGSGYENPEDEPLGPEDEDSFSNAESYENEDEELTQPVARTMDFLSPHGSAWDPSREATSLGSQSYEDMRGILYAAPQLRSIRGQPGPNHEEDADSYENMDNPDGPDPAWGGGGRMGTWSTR
Procedure: as §1

[5] = molecular target: T5, human CD160 on CHO cells (human, UniProt O95971 25-159)
T5 construct: whole, on cells
T5 sequence (looked up): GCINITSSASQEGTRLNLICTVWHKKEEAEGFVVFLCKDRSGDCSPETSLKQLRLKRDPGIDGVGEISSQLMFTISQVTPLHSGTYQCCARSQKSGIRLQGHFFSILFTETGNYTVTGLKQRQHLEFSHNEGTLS
Procedure: as §1

[6] = molecular target: T6, human CD20 on CHO cells (human, UniProt P11836 1-297)
T6 construct: whole, on cells
T6 sequence (looked up): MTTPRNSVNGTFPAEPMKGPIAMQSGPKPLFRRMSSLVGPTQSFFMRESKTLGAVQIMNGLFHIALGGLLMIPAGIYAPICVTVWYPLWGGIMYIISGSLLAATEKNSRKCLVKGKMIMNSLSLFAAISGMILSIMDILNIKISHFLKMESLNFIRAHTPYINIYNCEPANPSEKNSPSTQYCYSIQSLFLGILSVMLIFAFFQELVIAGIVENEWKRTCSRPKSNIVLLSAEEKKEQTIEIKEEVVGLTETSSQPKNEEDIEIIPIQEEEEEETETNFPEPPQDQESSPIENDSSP
Procedure: as §1

[7] = molecular target: T7, human VISTA on CHO cells (human, UniProt Q9H7M9 33-311)
T7 construct: whole, on cells
Procedure: as §1

[8] = molecular target: T8, human GITR on CHO cells (human, UniProt Q9Y5U5 26-241)
T8 construct: whole, on cells
T8 sequence (looked up): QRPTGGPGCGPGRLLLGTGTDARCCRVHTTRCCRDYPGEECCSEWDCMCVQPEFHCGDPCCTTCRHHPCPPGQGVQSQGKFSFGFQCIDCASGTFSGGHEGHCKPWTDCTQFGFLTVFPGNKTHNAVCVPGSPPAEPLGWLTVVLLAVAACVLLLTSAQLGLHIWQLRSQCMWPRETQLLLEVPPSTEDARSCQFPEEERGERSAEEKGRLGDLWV
Procedure: as §1

[9] = molecular target: T9, human B7-H4 on CHO cells (human, UniProt Q7Z7D3 25-282)
T9 construct: whole, on cells
T9 sequence (looked up): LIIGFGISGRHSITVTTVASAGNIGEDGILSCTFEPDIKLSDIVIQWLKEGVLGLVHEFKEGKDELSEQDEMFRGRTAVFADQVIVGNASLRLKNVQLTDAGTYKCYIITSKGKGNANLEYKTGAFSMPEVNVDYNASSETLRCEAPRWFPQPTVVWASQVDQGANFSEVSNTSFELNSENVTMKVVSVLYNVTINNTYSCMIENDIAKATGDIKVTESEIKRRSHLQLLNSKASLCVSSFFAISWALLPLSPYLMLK
Procedure: as §1

Measured: binding result

B1: Clone 3712-IgG1v (IgG1v/kappa) (antibody)
heavy: QVQLVQSGAEVKKPGASVKVSCKASGYTFAGFEMHWVRQAPGQGLEWMGAIDPKTGGTDYNQKFKDRVTMTRDTSISTAYMELSRLRSDDTAVYYCARDLGYFDVWGQGTLVTVSSASTKGPSVFPLAPSSKSTSGGTAALGCLVKDYFPEPVTVSWNSGALTSGVHTFPAVLQSSGLYSLSSVVTVPSSSLGTQTYICNVNHKPSNTKVDKKVEPKSCDKTHTCPPCPAPELLGPSVFLFPPKPKDTLMISRTPEVTCVVVDVEHEDPEVKFNWYVDGVEVHNAKTKPREEQYNSTYRVVSVLTVLHQDWLNGKEYKCKVSNKALPAPIEKTISKAKGQPREPQVYTLPPSREEMTKNQVSLTCLVKGFYPSDIAVEWESNGQPENNYKTTPPVLDSDGSFFLYSKLTVDKSRWQQGNVFSCSVMHEALHNHYTQKSLSLSPGK
light: DIQMTQSPSSLSASVGDRVTITCRASQDIRSNLNWYQQKPGGAVKLLIYYTSRLHSGVPSRFSGSGSGTDYTLTISSLQPEDFATYFCQQSEKLPRTFGGGTKVEIRRTVAAPSVFIFPPSDEQLKSGTASVVCLLNNFYPREAKVQWKVDNALQSGNSQESVTEQDSKDSTYSLSSTLTLSKADYEKHKVYACEVTHQGLSSPVTKSFNRGEC
notes: copies: 2 + 2
no binding: all assays above
